Measured values taken from PMC3683045, “Induced tRNA Import into Human Mitochondria: Implication of a Host Aminoacyl-tRNA-Synthetase”.

B1: FD-L (structured_RNA)
RNA: GCGCAAUCGGUAGCGCCUCUUUACAGUGCUUAGUUCUCGAGCCCCCUACAGGGCUCUU
B2: FD-H (structured_RNA)
RNA: GCGCAAUCGGUAGCGCAGUAAGCACUGUAAAUGAGCCCCCUACAGGGCUCUU

Target: preKARS2 (cytosolic precursor of human mitochondrial lysyl-tRNA synthetase) (human, UniProt Q15046-2 1-625)
Assay: EMSA; 10 mM Mg2+; EMSA: 20 mM Tris-HCl pH 7.5, 150 mM NaCl, 10 mM MgCl2, 5 mM DTT, 10% glycerol, 0.1 mg/ml BSA, 30 C, 15 min; native 8% PAGE in 0.5x Tris-borate pH 8.3, 5% glycerol
Conditions: protein: recombinant; tags: C-terminal 6xHis; chain copies: 2; label: 5'-32P; D-arm and F-hairpin with linker

Sequence of preKARS2 (cytosolic precursor of human mitochondrial lysyl-tRNA synthetase) (Q15046 other isoform, or with tags, fused parts or gaps): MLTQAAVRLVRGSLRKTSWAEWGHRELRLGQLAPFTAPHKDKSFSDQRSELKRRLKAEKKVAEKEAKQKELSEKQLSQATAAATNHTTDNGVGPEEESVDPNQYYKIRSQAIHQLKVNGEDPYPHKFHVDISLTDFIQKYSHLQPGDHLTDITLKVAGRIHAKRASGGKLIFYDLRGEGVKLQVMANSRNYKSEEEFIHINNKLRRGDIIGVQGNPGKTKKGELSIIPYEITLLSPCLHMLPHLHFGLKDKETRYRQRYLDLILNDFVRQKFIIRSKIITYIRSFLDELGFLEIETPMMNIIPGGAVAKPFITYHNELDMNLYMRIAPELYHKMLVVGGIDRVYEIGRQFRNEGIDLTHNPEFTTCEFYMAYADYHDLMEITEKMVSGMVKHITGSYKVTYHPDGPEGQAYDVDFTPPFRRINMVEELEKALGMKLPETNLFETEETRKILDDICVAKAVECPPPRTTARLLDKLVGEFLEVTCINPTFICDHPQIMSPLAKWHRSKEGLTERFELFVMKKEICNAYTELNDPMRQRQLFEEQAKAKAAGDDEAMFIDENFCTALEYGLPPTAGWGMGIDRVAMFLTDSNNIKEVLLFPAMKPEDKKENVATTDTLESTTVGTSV

Binder	Kd
B1	400 ± 50 nM
B2	400 ± 50 nM
